Laboratory results taken from paper doi:10.1101/2024.04.30.591897 (bioRxiv, 2024).

Molecular target: LC3B (1-120, G120C) (human, UniProt Q9GZQ8 1-120, G120C)
Assay: pull-down

B1: GST-ALG2^ΔN23 (domain or fragment)
chain: DQSFLWNVFQRVDKDRSGVISDTELQQALSNGTWTPFNPVTVRSIISMFDRENKAGVNFSEFTGVWKYITDWQNVFRTYDRDNSGMIDKNELKQALSGFGYRLSDQFHDILIRKFDRQGRGQIAFDDFIQGCIVLQRLTDIFRRYDTDQDGWIQVSYEQYLSMVFSIV
binding result: binds
